According to patent US20190284275A1:
Substitutions are numbered along the chain they refer to.

B1: 1F4_5C5 (antibody, V domains shown)
VH: EVQLVQSGGGVVQPGRSLRLSCAASGFTSKKYGMHWVRQAPGKGLEWVAVISHDGSKKYYADSVKGRFTISRDNSKNTLFVQLSSLRPEDTAVYYCATSLYSSMDLWGQGTTVTVSS
VL: QSVVTQPPSVSAAPGQKVTISCSGSNSNIGKNYVSWFQQVPGTAPKLLIFEDNQRPSGIPDRFSASKSGTSASLAISGLQSEDEADYYCAAWDDLGGDHWVFGGGTKLTVL
B2: 1F4_5F8 (antibody, V domains shown)
VH: B1 VH with K30R, K31N, Y32P
VL: B1 VL with L95S, G96T, D98V
B3: 1F4_4E10 (antibody, V domains shown)
VH: B1 VH with K30R, K31A, Y32P
VL: B1 VL with L95H, G96N, D98E
B4: 1F4_1E3 (antibody, V domains shown)
VH: B1 VH with K30R, K31H, Y32P
VL: B1 VL with L95Y, G96R, D98P

Target: human KRAS (antigen of the affinity data in Table 1; variant not stated) (human) (UniProt P01116)
Assay: kinetic affinity measurement (Rmax in RU; method and format not named)

With B1 as the binder, how does the Kd read?
Its Kd is 6.63 nM.

And the koff?
The koff was 0.0011 s⁻¹.

What about the kon of the same binder?
The kon was 166000 M⁻¹ s⁻¹.

B2 was tested. Which Kd did it give?
The Kd was 12.6 nM.

What about the koff of the same binder?
The koff was 0.00229 s⁻¹.

And the kon?
The kon was 182000 M⁻¹ s⁻¹.

With B3 as the binder, how does the Kd read?
The Kd was 9.6 nM.

And the koff?
The koff was 0.0013 s⁻¹.

What about the kon of the same binder?
Its kon is 135000 M⁻¹ s⁻¹.

Which Kd does the source give for B4 here?
Its Kd is 4.2 nM.
